Results on two molecules are retold here after patent US20220324953A1 (JIANGSU HENGRUI MEDICINE, published 2022).

In test [1] the target is T1, human CTGF protein (R&D, Cat No. 9190-CC) (human, UniProt P29279 27-349).
T1 construct: Bought protein; also called CTGF recombinant protein; CTGF (R&D)
T1 sequence: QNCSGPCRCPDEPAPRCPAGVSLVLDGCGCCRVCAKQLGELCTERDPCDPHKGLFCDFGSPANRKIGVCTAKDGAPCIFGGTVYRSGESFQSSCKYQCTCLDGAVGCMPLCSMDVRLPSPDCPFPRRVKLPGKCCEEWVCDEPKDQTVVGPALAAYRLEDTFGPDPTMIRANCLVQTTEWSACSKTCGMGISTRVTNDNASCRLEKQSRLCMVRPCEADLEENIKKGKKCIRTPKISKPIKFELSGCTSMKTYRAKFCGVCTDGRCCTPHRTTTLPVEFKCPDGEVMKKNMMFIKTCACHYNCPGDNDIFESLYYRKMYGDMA
Description: ELISA, plate coated with CTGF (R&D 9190-CC). As to the method: The binding activity of anti-human CTGF antibody to human CTGF protein was tested by ELISA assay and Biacore. A 96-well microtiter plate was directly coated with the CTGF recombinant protein. The signal strength upon the addition of the antibody was used to determine the binding activity of the antibody to CTGF. The specific experimental procedures were as follows:
The CTGF protein (R&D, Cat No. 9190-CC) was diluted with PBS, pH 7.4 (Shanghai Yuanpei, Cat No. B320) buffer to a concentration of 0.2 μg/ml, 50 μl/well of which was added into the 96-well microtiter plate (Corning, Cat No. CLS3590-100EA), and incubated in an incubator at 37° C. for 2 hours or at 4° C. overnight (16-18 hours). The liquid was removed, 250 μl/ well blocking solution (5% skim milk (BD skim milk, Cat No.232100) diluted in PBS) was added, and incubated in an incubator at 37° C. for 3 hours or at 4° C. overnight (16-18 hours) for blocking. After the blocking was finished, the blocking solution was removed, the plate was washed for 5 times with PBST buffer (PBS containing 0.1% Tween-20, pH 7.4), 50 μl/well of various concentrations of each of the test antibodies (antibodies purified from hybridoma or humanized antibodies) diluted with sample dilution solution were added, and incubated in an incubator at 37° C. for 1 hours. After the incubation was finished, the plate was washed for 3 times with PBST, 50 μl/well of HRP-labeled goat anti-mouse secondary antibody (Jackson Immuno Research, Cat No. 115-035-003) or goat anti-human secondary antibody (Jackson Immuno Research, Cat No. 109-035-003) diluted with sample dilution solution was added, and incubated at 37° C. for 1 hour. The plate was washed for 3 times with PBST, 50 μl/well of TMB chromogenic substrate (KPL, Cat No. 52-00-03) was added, incubated at room temperature for 5-10min, and 50 μl/well of 1 M H₂SO₄ was added to stop the reaction. The absorbance value was read by a microplate reader (Molecular Devices, VERSA max) at a wavelength of 450 nm, and the data was analyzed with GraphPad Prism 5. The binding of CTGF antibody to human CTGF protein was calculated as EC50 value.

Test [2] addresses T2, human CTGF (antigen of the Biacore assays) (human, UniProt P29279 27-349).
T2 construct: also called antigen human CTGF; human CTGF protein
T2 sequence (looked up): T1 sequence with D57H
Description: Biacore, antibody captured on Protein A, CTGF in flow, 1:1 fit. The source says:
(§1) A certain amount of each of the test antibodies was affinity-captured with Protein A biosensor chip (Cat. # 29127556, GE), and then a certain concentration of human or mouse CTGF was allowed to flow through the surface of the chip. The reaction signals were detected in real time with Biacore instrument to generate a binding and dissociation curve. After the dissociation was completed in each cycle, the biosensor chip was washed and regenerated with Glycine-HCl regeneration solution pH 1.5 (Cat. # BR-1003-54, GE). The running buffer for the assay was 1×HBS-EP buffer solution (Cat. # BR-1001-88, GE).
On the technique in general: In SPR one partner is held on a chip, and binding of the other changes the refractive index at the surface.

The target in test [3] is T3, Cynomolgus CTGF-Fc (fusion protein of cynomolgus CTGF coding region with Fc) (cynomolgus).
T3 construct: also called cyno-CTGF-mFc protein; cyno-CTGF protein with Fc tag
T3 sequence (chain, as listed by the source limits assumed): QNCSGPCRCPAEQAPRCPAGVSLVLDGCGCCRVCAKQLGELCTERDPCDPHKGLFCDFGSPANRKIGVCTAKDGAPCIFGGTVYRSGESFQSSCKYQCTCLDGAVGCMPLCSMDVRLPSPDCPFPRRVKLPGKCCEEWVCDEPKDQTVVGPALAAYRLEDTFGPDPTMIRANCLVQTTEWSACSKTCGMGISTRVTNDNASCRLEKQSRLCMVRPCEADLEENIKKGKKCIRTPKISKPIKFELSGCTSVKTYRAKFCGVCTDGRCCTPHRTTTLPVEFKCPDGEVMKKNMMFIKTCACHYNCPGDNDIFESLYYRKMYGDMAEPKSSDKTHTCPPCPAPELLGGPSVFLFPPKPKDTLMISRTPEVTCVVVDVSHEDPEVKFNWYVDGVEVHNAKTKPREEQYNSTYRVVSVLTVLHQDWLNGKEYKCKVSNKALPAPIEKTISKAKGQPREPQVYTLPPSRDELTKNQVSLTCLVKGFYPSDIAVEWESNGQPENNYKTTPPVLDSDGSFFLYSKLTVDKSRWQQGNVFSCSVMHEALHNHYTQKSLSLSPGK
Description: ELISA, cyno-CTGF-Fc captured by anti-mFc. As for the experimental part:
The binding activity of anti-monkey CTGF antibody to monkey CTGF protein was tested by ELISA assay. A 96-well microtiter plate was directly coated with anti-mFc protein, and then the cyno-CTGF protein with Fc tag was bound to the plate, and then the antibody was added. The signal strength upon the addition of the antibody was used to determine the binding activity of the antibody to cyno-CTGF. The specific experimental procedures were as follows:
The anti-mFc Protein (Sigma, Cat No. M4280) was diluted with PBS, pH 7.4 (Shanghai Yuanpei, Cat No. B320) buffer to a concentration of 2 μg/ml, which was added into the 96-well microtiter plate (Corning, Cat No. CLS3590-100EA) at 50 μl/well, and incubated in an incubator at 37° C. for 2 hours. The liquid was removed, 250 μl/well blocking solution (5% skim milk (BD skim milk, Cat No.232100) diluted in PBS) was added, and incubated in an incubator at 37° C. for 3 hours or at 4° C. overnight (16-18 hours) for blocking. After the blocking was finished, the blocking solution was removed, the plate was washed for 3 times with PBST buffer (PBS containing 0.1% Tween-20, pH 7.4), 50 μl of 1 μg/ml cyno-CTGF-mFc protein was added into each well, incubated in an incubator at 37° C. for 1 hour, and then the plate was washed for 3 times with PBST buffer (PBS containing 0.1% Tween-20, pH 7.4). 50 μl/well of various concentrations of each of the test antibodies (antibodies purified from hybridoma or humanized antibodies) diluted with sample dilution solution were added, and incubated in an incubator at 37° C. for 1 hours. After the incubation was finished, the plate was washed for 3 times with PBST, 50 μl/well of HRP-labeled goat anti-mouse secondary antibody (Jackson Immuno Research, Cat No. 115-035-003) or goat anti-human secondary antibody (Jackson Immuno Research, Cat No. 109-035-003) diluted with sample dilution solution was added, and incubated at 37° C. for 1 hour. The plate was washed for 5 times with PBST, 50 μl/well of TMB chromogenic substrate (KPL, Cat No. 52-00-03) was added, incubated at room temperature for 5-10 min, and 50 μl/well of 1 M H₂SO₄ was added to stop the reaction. The absorbance value was read by a microplate reader (Molecular Devices, VERSA max) at a wavelength of 450 nm, and the data was analyzed with GraphPad Prism 5. The binding of CTGF antibody to cyno CTGF protein was calculated as EC50 value.
For orientation: An ELISA detects its analyte on a solid surface through an enzyme-linked reagent.

The target in test [4] is T4, mouse CTGF (antigen of the Biacore assay) (mouse, UniProt P29268 26-348).
T4 construct: also called mouse CTGF protein
T4 sequence (looked up): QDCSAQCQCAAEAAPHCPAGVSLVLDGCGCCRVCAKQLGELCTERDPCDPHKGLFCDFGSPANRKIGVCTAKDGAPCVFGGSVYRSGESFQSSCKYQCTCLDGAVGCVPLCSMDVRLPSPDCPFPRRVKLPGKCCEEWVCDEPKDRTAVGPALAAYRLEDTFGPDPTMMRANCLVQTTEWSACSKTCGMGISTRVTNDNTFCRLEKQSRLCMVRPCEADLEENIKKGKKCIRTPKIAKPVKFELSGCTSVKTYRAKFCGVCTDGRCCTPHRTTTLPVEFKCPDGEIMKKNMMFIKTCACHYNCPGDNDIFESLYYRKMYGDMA
Description: Biacore, antibody captured on Protein A, mouse CTGF in flow, 1:1 fit.
From the text: as §1

For test [5], the target named is T2, human CTGF (antigen of the Biacore …). Nature of the test: Biacore, CTGF immobilised, antibody 150 µg/ml then 50 nM TGF-β1 (competitor TGF-β1). As to the method: First, the antigen human CTGF was immobilized onto a CMS biosensor chip (Cat. # BR-1005-30, GE) by amino coupling, with an immobilization level of 1500 RU, and then a high concentration of CTGF antibody (150 μg/ml) was allowed to flow through the surface of the chip for 150 s; 50 nM TGF-β1 protein was injected for 120 s, and the reaction signals were detected in real time with the Biacore T200 instrument to generate a binding and dissociation curve. After the dissociation was completed in each of the experimental cycles, the biosensor chip was washed and regenerated with regeneration buffer.
The resulting experimental data were statistically analyzed with GE Biacore T200 Evaluation version 3.0 software.

Where a chain is given by its changes, count along the chain named.

B1: Hu95-51yk (antibody, human IgG1, kappa, V domains shown)
VH: EVQLVQSGAEVKKPGASVKVSCRASGFTFTNYAIHWVKQAPGQRLEWMGLVYPYTGGTAYNQKFKDKVTLTFDTSASTAYMELSSLRSEDTAVYYCARWGMIPGTNSYFDVWGQGTTVTVSS
VL: EIVLTQSPATLSLSPGERATLSCRASSSVSYIHWYQQKPGQAPRPWIYATSNLASGIPARFSGSGSGTDYTLTISRLEPEDFAVYYCQQWNSNPWTFGGGTKVEIKR
Molecule B1 registered an EC50 in test [1] of 0.08 nM. In test [2], this molecule showed a Kd of 0.0358 nM, a koff of 0.00102 s⁻¹ and a kon of 2.84e+07 M⁻¹ s⁻¹. In test [3], the EC50 turned out to be 0.059 nM. Also, in test [4], binding was characterised by a dissociation constant (Kd) of 0.0202 nM, the koff worked out at 0.000516 s⁻¹ and the kon worked out at 2.56e+07 M⁻¹ s⁻¹.

B2: Hu164-67yl (antibody, human IgG1, lambda)
heavy: EVTLKESGPVLVKPTETLTLTCTVSGFSLSTFGVHWIRQPPGKGLEWLGVIWRRGGTDYNAAFMSRLTISKDTSKSQVVFTMTNMDPVDTATYYCARDGGFDYWGQGTTVTVSSASTKGPSVFPLAPSSKSTSGGTAALGCLVKDYFPEPVTVSWNSGALTSGVHTFPAVLQSSGLYSLSSVVTVPSSSLGTQTYICNVNHKPSNTKVDKKVEPKSCDKTHTCPPCPAPELLGGPSVFLFPPKPKDTLYITREPEVTCVVVDVSHEDPEVKFNWYVDGVEVHNAKTKPREEQYNSTYRVVSVLTVLHQDWLNGKEYKCKVSNKALPAPIEKTISKAKGQPREPQVYTLPPSRDELTKNQVSLTCLVKGFYPSDIAVEWESNGQPENNYKTTPPVLDSDGSFFLYSKLTVDKSRWQQGNVFSCSVMHEALHNHYTQKSLSLSPGK
light: ETVVTQEPSLTVSPGGTVTLTCRSSIGAVTTSNYANWVQQKPGQAFRGLIGGTSNRAPWTPARFSGSLLGGKAALTLSGVQPEDEAEYYCALWYSTHYVFGGGTKLTVLGQPKANPTVTLFPPSSEELQANKATLVCLISDFYPGAVTVAWKADGSPVKAGVETTKPSKQSNNKYAASSYLSLTPEQWKSHRSYSCQVTHEGSTVEKTVAPTEC
On to B2, for which the EC50 in test [1] came to 0.06 nM. In test [2], this molecule yielded a Kd of 0.0662 nM, a dissociation rate constant (koff) of 0.00227 s⁻¹ and a kon of 3.43e+07 M⁻¹ s⁻¹. Besides, the “Function-blocking percentage (%)” value in test [5] came out at 53.9%. In test [4], this molecule registered a Kd of 0.0363 nM, a koff of 0.00194 s⁻¹ and a kon of 5.34e+07 M⁻¹ s⁻¹.

Broadly, the EC50 is the midpoint of the concentration-response curve. The term Kd denotes the concentration at which binding is half-saturated. A word on the koff: it is the first-order rate constant of dissociation. Lower therefore signals slow dissociation. In general, kon refers to the rate constant with which the complex forms.
